Publication PMC3201864

Legend:
CELF1 T187 (RRM1-RRM2) [1] = biological target: T1, CELF1 T187 (RRM1-RRM2) (Xenopus, UniProt O57406 1-187); assay: gel filtration
CELF1 T187 (RRM1-RRM2) [2] = biological target: T1, CELF1 T187 (RRM1-RRM2); assay: NMR titration
CELF1 T187 (RRM1-RRM2) [3] = biological target: T1, CELF1 T187 (RRM1-RRM2); assay: EMSA
CELF1 T187 (RRM1-RRM2) [4] = biological target: T1, CELF1 T187 (RRM1-RRM2); assay: gel filtration; remark: listed apart in the source
CELF1 T187 (RRM1-RRM2) [5] = biological target: T1, CELF1 T187 (RRM1-RRM2); assay: ESI-MS
CELF1 T187 (RRM1-RRM2) [6] = biological target: T1, CELF1 T187 (RRM1-RRM2); assay: ITC
CELF1 RRM1 [7] = biological target: T2, CELF1 RRM1 (Xenopus, UniProt O57406 1-101); assay: gel filtration
T2 sequence (O57406 1-101): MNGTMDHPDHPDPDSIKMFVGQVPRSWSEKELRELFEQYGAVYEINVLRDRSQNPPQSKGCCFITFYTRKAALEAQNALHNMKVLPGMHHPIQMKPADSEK

CELF1 RRM1 [8] = biological target: T2, CELF1 RRM1; assay: NMR titration
CELF1 T187 (RRM1-RRM2) [9] = biological target: T1, CELF1 T187 (RRM1-RRM2); assay: EMSA; remark: listed apart in the source
CELF1 T187 (RRM1-RRM2) [10] = biological target: T1, CELF1 T187 (RRM1-RRM2); assay: gel filtration; remark: listed apart in the source
CELF1 RRM1 [11] = biological target: T2, CELF1 RRM1; assay: ESI-MS
CELF1 T187 (RRM1-RRM2) [12] = biological target: T1, CELF1 T187 (RRM1-RRM2); assay: gel filtration; remark: listed apart in the source
CELF1 RRM2 = CELF1 RRM2 (Xenopus, UniProt O57406 108-187); assay: gel filtration
Chain of CELF1 RRM2 (O57406 108-187): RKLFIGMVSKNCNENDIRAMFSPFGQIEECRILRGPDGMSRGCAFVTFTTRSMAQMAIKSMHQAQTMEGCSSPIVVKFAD

CELF1 RRM1 [13] = biological target: T2, CELF1 RRM1; assay: gel filtration; remark: listed apart in the source

T1 sequence (O57406 1-187): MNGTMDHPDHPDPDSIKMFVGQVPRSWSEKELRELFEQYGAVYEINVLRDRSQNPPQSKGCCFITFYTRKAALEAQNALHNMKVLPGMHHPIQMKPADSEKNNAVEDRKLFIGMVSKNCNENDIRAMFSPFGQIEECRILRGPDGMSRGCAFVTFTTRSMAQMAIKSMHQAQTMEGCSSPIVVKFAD

B1: CUG15 (ssRNA)
RNA: CUGCUGCUGCUGCUG
CELF1 T187 (RRM1-RRM2) [1]
  binding result: binds

B2: EDEN3U (x=3) (ssRNA)
RNA: UGUUUUUGU
CELF1 T187 (RRM1-RRM2) [2]
  binding result: binds

B3: GUCU15 (ssRNA)
RNA: UGUCUGUCUGUCUGU
CELF1 T187 (RRM1-RRM2) [3]
  binding result: binds

B4: UG15 (GU15 in text) (ssRNA)
RNA: UGUGUGUGUGUGUGU
CELF1 T187 (RRM1-RRM2) [4]
  binding result: binds

B5: EDEN11 (GRE) (ssRNA)
RNA: UGUUUGUUUGU
CELF1 T187 (RRM1-RRM2) [5]
  binding result: binds

B6: UGU (ssRNA)
RNA: UGU
CELF1 T187 (RRM1-RRM2) [6]
  Kd: 64 ± 2 µM

B7: EDEN7m (ssRNA)
RNA: UGUUUAU
CELF1 RRM1 [7]
  binding result: binds

B8: CUG2 (ssRNA)
RNA: CUGCUG
CELF1 RRM1 [8]
  binding result: binds

B9: ARE15 (ssRNA)
RNA: UAUUUAUUUAUUUAU
CELF1 T187 (RRM1-RRM2) [9]
  binding result: no binding

B10: EDEN15 (ssRNA)
RNA: UGUUUGUUUGUUUGU
CELF1 T187 (RRM1-RRM2) [10]
  binding result: binds

B11: EDEN9 (ssRNA)
RNA: UUGUUUGUU
CELF1 RRM1 [11]
  binding result: binds

B12: ARE7 (ssRNA)
RNA: UAUUUAU
CELF1 T187 (RRM1-RRM2) [12]
  binding result: no binding
CELF1 RRM2
  binding result: no binding
CELF1 RRM1 [13]
  binding result: no binding
